Experimental data taken from publication PMC7102968.

Molecular target: TetR-Y42A Y42A;C68S;C88N;C121T;C144S;internal_change (UniProt P04483)
Experiment: ITC
Details: ITC: 20 mM potassium phosphate pH 7.4, 50 mM NaCl, 25 C; EMSA: 50 mM Tris-HCl pH 8.0, 10 mM MgCl2, 25 mM NaCl, 25 ug/ml yeast tRNA, room temperature; SEC …

## GGCCGGAGAAUGUUAUGGCGCGAAAGCGCAGAGAAAACCGGUC [TetR-binding aptamer K1]
  Kd: 13.9 µM
